Data from the supplement of paper PMC9732359.
± gives the uncertainty stated by the source.

Test: protein stability index of a GFP-peptide fusion (yeast GPS) (PSI 1-4); higher = more stable; sorted into four equal gates, so the index is relative within each strain
Summary of the method: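 Tiled yeast protein peptides of 17 residues were each joined downstream of GFP, on plasmids that also express Cherry. The pooled library was maintained in yeast, and mid-log cultures in leucine-free medium were sorted into four equal gates on the GFP/Cherry ratio. Plasmids from every gate were amplified by PCR and sequenced on Illumina, with barcodes linking reads to strains. The protein stability index of a peptide is its gate-number-weighted read frequency summed over the gates.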

Sequence | protein stability index (doa10∆) | protein stability index (pdr5∆) | protein stability index (san1∆) | protein stability index (ubr1∆)
SAGQPNLLLSASRDKTL [ASC1] | 2.4 ± 0.063 | 2.77 ± 0.05 | 2.7 ± 0.041 | 1.91 ± 0.049
NFNASLQLTTNTEQGDS [SNM1] | 2.02 ± 0.039 | 2.3 ± 0.064 | 2.49 ± 0.055 | 1.85 ± 0.071
PAFSFGISNGSESKDSD [YLR335W/NUP2] | 3.23 ± 0.093 | 3.05 ± 0.11 | 3.12 ± 0.063 | 3.08 ± 0.088
VSLSQLLFIVGQVAIKT [YCS4] | 1.85 ± 0.062 | 2.27 ± 0.062 | 1.71 ± 0.088 | 2.13 ± 0.046
EDEEKILDNTENYDDTE [DSN1] | 3.37 ± 0.088 | 3.33 ± 0.078 | 3.4 ± 0.058 | 3.44 ± 0.072
EAVVDQDVQRTCILHGP [FAS1] | 3.32 ± 0.11 | 3.24 ± 0.087 | 3.17 ± 0.078 | 3.38 ± 0.051
NLIGVITHQGANSESGH [UBP6] | 2.33 ± 0.12 | 3 ± 0.091 | 3.22 ± 0.069 | 3.07 ± 0.085
LKPSMSVALHRHSNALV [RPT3] | 1.64 ± 0.11 | 2.41 ± 0.15 | 2.51 ± 0.15 | 2.53 ± 0.22
KYKPTPLYVMDEIDAAL [SMC4] | 2.45 ± 0.085 | 3.06 ± 0.11 | 3 ± 0.07 | 2.81 ± 0.057
NSVRNSLLLAHFFSKSC [NUT1] | 1.74 ± 0.05 | 1.28 ± 0.041 | 1.19 ± 0.078 | 1.18 ± 0.035
NMMNQVGEEETSQKMKK [SRP54] | 3.33 ± 0.11 | 3.39 ± 0.12 | 3.33 ± 0.076 | 3.23 ± 0.079
SFGTANTNGTNASANST [YOR098C/NUP1] | 3.04 ± 0.11 | 3.02 ± 0.11 | 2.75 ± 0.15 | 2.85 ± 0.12
NRKIYQFTLYDRELNEV [SMC3] |  | 2.62 ± 0.11 | 2.76 ± 0.13 | 2.98 ± 0.095
LLAVAIAASYHYPEIED [RPP0] | 1.38 ± 0.074 | 2.11 ± 0.11 | 1.73 ± 0.13 | 1.91 ± 0.08
DDSTKFQLVNDVMDELI [SIR3] | 3.29 ± 0.15 | 3.37 ± 0.15 | 3.47 ± 0.1 | 3.39 ± 0.086
YKVEHPFFARFKLRIQT [RPB11] | 2 ± 0.097 | 1.28 ± 0.057 | 1.37 ± 0.11 | 1.31 ± 0.16
NTTDPLGHTKAALGEVA [SIR2] | 2.51 ± 0.065 | 2.69 ± 0.078 | 2.67 ± 0.088 | 3.08 ± 0.069
RHGSVVEASRRRRSSTN [MED1] | 3.19 ± 0.073 | 3.41 ± 0.078 | 3.26 ± 0.045 | 3.3 ± 0.044
DAMVTRTPVIISLRNNH [SMD2] | 1.61 ± 0.058 | 1.85 ± 0.056 | 1.43 ± 0.12 | 1.7 ± 0.073
MAQRTLKNKYESYDAAL [FAS2] | 3.147 ± 0.019 | 3.059 ± 0.017 | 2.999 ± 0.015 | 3.064 ± 0.012
EIQRTMLELLNQLDGFD [RPT2] | 2.83 ± 0.088 | 2.97 ± 0.12 | 2.93 ± 0.067 | 
DKVSSCFPQYVNSKQGA [NNF1] | 2.07 ± 0.088 | 2.23 ± 0.091 | 2.11 ± 0.12 | 2.95 ± 0.092
VLAHRIGLVPLKVDPDM [RPC40] | 2.94 ± 0.27 |  |  | 
LGQYVQAHTLYNSVRPF [PRE10] | 2.74 ± 0.1 | 2.87 ± 0.099 | 2.78 ± 0.11 | 2.65 ± 0.053
STKELKFSDIIQGISKM [BRN1] | 3.16 ± 0.098 | 3.33 ± 0.084 | 3.18 ± 0.072 | 3.35 ± 0.085
VLLHGASLGIGLAAMGS [RPN2] | 1.82 ± 0.071 | 1.9 ± 0.069 | 1.93 ± 0.072 | 1.56 ± 0.065
ELALLNHWRQNKGRAVY [BRR2] | 1.21 ± 0.21 | 1.21 ± 0.13 | 1.21 ± 0.29 | 1.1 ± 0.083

Sequence | protein stability index (doa10∆) | protein stability index (pdr5∆) | protein stability index (san1∆) | protein stability index (ubr1∆)
DMATGSNDTTAFNDSCV [SRB8] | 2.73 ± 0.05 | 3.07 ± 0.06 | 3.14 ± 0.045 | 2.86 ± 0.037
MVVNGPIPDARNAALRA [SCL1] | 2.38 ± 0.14 | 2.72 ± 0.11 | 2.36 ± 0.13 | 2.35 ± 0.091
IRAGEFDVVLTTFEYII [SNF2] | 2.31 ± 0.14 | 2.56 ± 0.13 | 2.37 ± 0.11 | 2.59 ± 0.12
IRKFFGLSKEDDVRDFV [RPS6A] | 3.43 ± 0.1 | 3.35 ± 0.098 | 3.38 ± 0.12 | 3.32 ± 0.098
LMKCCHEAYSIIEKITD [RRP45] | 2.56 ± 0.067 | 2.68 ± 0.09 | 2.56 ± 0.086 | 2.52 ± 0.18
SVDKKVDSGEERNEQER [SWI3] | 3.53 ± 0.092 | 3.35 ± 0.14 | 3.25 ± 0.11 | 3.54 ± 0.077
KCPLLVEVDITLSPNVT [GRR1] | 1.8 ± 0.058 | 1.83 ± 0.065 | 1.76 ± 0.088 | 2.51 ± 0.071
FMDNSYDIDEIDHSDES [ESC2] |  |  | 2.66 ± 0.14 | 2.82 ± 0.13
LFGAKPQNTTATTGGLF [YGR119C/NUP57] | 2.7 ± 0.084 | 3.06 ± 0.076 | 2.97 ± 0.12 | 2.59 ± 0.089
IDKLMLSPSDQFAPAFL [SSN2] | 1.99 ± 0.068 | 2.24 ± 0.1 | 2.1 ± 0.13 | 2.5 ± 0.09
MEMSEKIQFILEQMELS [RPN5] |  | 2.65 ± 0.24 | 2.35 ± 0.29 | 2.66 ± 0.19
VGRRAANLRVLNSYWVN [RPL15A] | 1.97 ± 0.062 | 1.71 ± 0.072 | 1.91 ± 0.11 | 1.69 ± 0.07
ERKQIHEFKLIVGKKIQ [GRR1] | 2.82 ± 0.045 | 2.58 ± 0.065 | 3.03 ± 0.06 | 3.13 ± 0.058
DLSYIEFLFESLKNDLP [ECM29] | 2.84 ± 0.13 | 2.65 ± 0.14 | 2.78 ± 0.083 | 3.13 ± 0.12
FLLLAVNKYGLRADKLY [ISW2] | 3.05 ± 0.078 | 2.5 ± 0.075 | 2.62 ± 0.055 | 2.93 ± 0.059
DQIAVCEISGSIEQLRN [BRN1] | 3.27 ± 0.16 | 3.26 ± 0.19 | 3.11 ± 0.19 | 
STFGFNNSAPNNTNNAN [YJL041W/NSP1] | 3.13 ± 0.042 | 3.18 ± 0.047 | 2.96 ± 0.039 | 3.19 ± 0.038
TNQLVLLQKMLNLLNYQ [YML103C/NUP188] | 1.99 ± 0.04 | 1.43 ± 0.03 | 1.29 ± 0.056 | 1.43 ± 0.031
EGARMVRELFEMARTKK [RPT1] | 1.78 ± 0.12 | 1.7 ± 0.15 |  | 
LMRSCFYLMVSSLSFGP [YJL039C/NUP192] | 1.64 ± 0.04 | 1.48 ± 0.04 | 1.76 ± 0.075 | 1.19 ± 0.033
FRKKRKFELGRQPANTK [RPS8A] | 2.88 ± 0.063 | 3.12 ± 0.066 | 3.13 ± 0.082 | 3.16 ± 0.065
NNNNAPIIIYGTENTER [YOR098C/NUP1] | 2.62 ± 0.054 | 2.69 ± 0.06 | 2.83 ± 0.045 | 2.74 ± 0.039
SSLVRRNSVKLLSKLLL [YCS4] | 1.68 ± 0.047 | 1.61 ± 0.04 | 1.64 ± 0.085 | 1.39 ± 0.027
VDPVYKDVAKPTGPKTA [FAS2] | 2.99 ± 0.096 | 3.05 ± 0.1 | 2.52 ± 0.08 | 2.34 ± 0.069
KQDKTLQKVENQTIKEA [YIL149C/MLP2] | 3.22 ± 0.072 | 3.15 ± 0.07 | 3.15 ± 0.071 | 3.17 ± 0.062
DEEGIFSRFVDQFIRHV [YCG1] | 2.98 ± 0.16 | 2.79 ± 0.13 | 2.99 ± 0.085 | 2.93 ± 0.06
